Tests used:
[1] = Screening mutant/fluorophore combinations for a fluorescence response to ADP; conditions: ParM mutant/fluorophore combination
[2] = Fluorescence titration of labeled ParM with ADP; format: binding; conditions: Table 2, 20° C.; for ADP F+ADP/F−ADP: MDCC-ParM mutants; for Kd: fluorescence titration
Protocol: MDCC fluorescence was excited at 431 nm and detected at 474 nm, for the rhodamine-labeled proteins, excitation and emission wavelengths of 553 nm and 578 nm were used. […] The fraction of ParM bound to ADP was calculated from the fluorescence intensities.
The MDCC fluorescence was excited at 431 nm and emission was recorded at 474 nm. The equilibrium dissociation constants were determined by fitting a quadratic binding curve to the data.
(§1) The equilibrium dissociation constants were determined by fitting a quadratic binding curve to the data and are listed in Table Y. For the plot the experimental fluorescence intensities were normalized to the maximal fluorescence change obtained at saturation with ADP.
(§2) [formula] where [P] and [L] are the total concentrations of protein and ligand, respectively, Kd is the dissociation constant and Fmin and Fmax are the fluorescence intensities of the free and ligand bound protein.
(§3) Fluorescence spectra and titrations were measured in a Cary Eclipse spectrofluorimeter (Varian). Excitation and emission spectra were recorded with 5 nm slit width at emission and excitation wavelength of 576 nm and 553 nm, respectively. In titration experiments rhodamine fluorescence was measured at the same excitation/emission wavelength. Titration data were analyzed with a quadratic binding curve using the program Grafit 5.0 (7).

[3] = Fluorescence titration of labeled ParM with ATP; format: binding; conditions: Table 2; for ATP F+ATP/F−ATP: MDCC-ParM mutants; for ATP F+ATP/F−ATP / Kd: 20° C.; for Kd: highly purified ATP containing only 0.03% ADP
Protocol: The MDCC fluorescence was excited at 431 nm and emission was recorded at 474 nm. The equilibrium dissociation constants were determined by fitting a quadratic binding curve to the data. For the plot the experimental fluorescence intensities were converted to the nucleotide bound fraction of ParM.
as §1
ADP and ATP were purchased from Sigma at the highest purity available. The purity of the nucleotides was analysed by HPLC using a Partisphere SAX column, 125×4.5 mm (Whatman). Nucleotide separation was performed isocratic with 0.3 M (NH4)2HPO4 buffer pH 4.0, 25% MeOH, and the absorbance at 260 nm was monitored.
as §2, §3

B1: IDCC-ParM (I27C): ParM I27C/C287A labeled with IDCC (conjugate, UniProt P11904 1-320, looked up, variant I27C C287A)
Plasmid segregation protein …: MLVFIDDGSTNIKLQWQESDGTIKQHCSPNSFKREWAVSFGDKKVFNYTLNGEQYSFDPISPDAVVTTNIAWQYSDVNVVAVHHALLTSGLPVSEVDIVCTLPLTEYYDRNNQPNTENIERKKANFRKKITLNGGDTFTIKDVKVMPESIPAGYEVLQELDELDSLLIIDLGGTTLDISQVMGKLSGISKIYGDSSLGVSLVTSAVKDALSLARTKGSSYLADDIIIHRKDNNYLKQRINDENKISIVTEAMNEALRKLEQRVLNTLNEFSGYTHVMVIGGGAELIADAVKKHTQIRDERFFKTNNSQYDLVNGMYLIGN
modifications: IDCC label
[1]
  Fluorescence change, ratio of the intensity in presence of 1 mM ADP to that in the absence of ADP: 1.5

B2: CPM-ParM (T215C): ParM T215C/C287A labeled with CPM (conjugate, UniProt P11904 1-320, looked up, variant T215C C287A)
Plasmid segregation protein …: MLVFIDDGSTNIKLQWQESDGTIKQHISPNSFKREWAVSFGDKKVFNYTLNGEQYSFDPISPDAVVTTNIAWQYSDVNVVAVHHALLTSGLPVSEVDIVCTLPLTEYYDRNNQPNTENIERKKANFRKKITLNGGDTFTIKDVKVMPESIPAGYEVLQELDELDSLLIIDLGGTTLDISQVMGKLSGISKIYGDSSLGVSLVTSAVKDALSLARCKGSSYLADDIIIHRKDNNYLKQRINDENKISIVTEAMNEALRKLEQRVLNTLNEFSGYTHVMVIGGGAELIADAVKKHTQIRDERFFKTNNSQYDLVNGMYLIGN
modifications: CPM label
[1]
  Fluorescence change, ratio of the intensity in presence of 1 mM ADP to that in the absence of ADP: 0.76

B3: S9A: MDCC-ParM (His6/S9A/I27C/C287A) (conjugate, UniProt P11904 1-320, looked up, variant S9A I27C C287A)
Plasmid segregation protein …: MLVFIDDGATNIKLQWQESDGTIKQHCSPNSFKREWAVSFGDKKVFNYTLNGEQYSFDPISPDAVVTTNIAWQYSDVNVVAVHHALLTSGLPVSEVDIVCTLPLTEYYDRNNQPNTENIERKKANFRKKITLNGGDTFTIKDVKVMPESIPAGYEVLQELDELDSLLIIDLGGTTLDISQVMGKLSGISKIYGDSSLGVSLVTSAVKDALSLARTKGSSYLADDIIIHRKDNNYLKQRINDENKISIVTEAMNEALRKLEQRVLNTLNEFSGYTHVMVIGGGAELIADAVKKHTQIRDERFFKTNNSQYDLVNGMYLIGN
modifications: MDCC label; His6 tag
[2]
  ADP F+ADP/F−ADP: 3.1
  Kd: 2.5 µM
[3]
  Kd ratio ATP/ADP: 39
  ATP F+ATP/F−ATP: 2.9
  Kd: 98 µM

B4: IDCC-ParM (D63C): ParM D63C/C287A labeled with IDCC (conjugate, UniProt P11904 1-320, looked up, variant D63C C287A)
Plasmid segregation protein …: MLVFIDDGSTNIKLQWQESDGTIKQHISPNSFKREWAVSFGDKKVFNYTLNGEQYSFDPISPCAVVTTNIAWQYSDVNVVAVHHALLTSGLPVSEVDIVCTLPLTEYYDRNNQPNTENIERKKANFRKKITLNGGDTFTIKDVKVMPESIPAGYEVLQELDELDSLLIIDLGGTTLDISQVMGKLSGISKIYGDSSLGVSLVTSAVKDALSLARTKGSSYLADDIIIHRKDNNYLKQRINDENKISIVTEAMNEALRKLEQRVLNTLNEFSGYTHVMVIGGGAELIADAVKKHTQIRDERFFKTNNSQYDLVNGMYLIGN
modifications: IDCC label
[1]
  Fluorescence change, ratio of the intensity in presence of 1 mM ADP to that in the absence of ADP: 0.53

B5: IDCC-ParM (D58C): ParM D58C/C287A labeled with IDCC (conjugate, UniProt P11904 1-320, looked up, variant D58C C287A)
Plasmid segregation protein …: MLVFIDDGSTNIKLQWQESDGTIKQHISPNSFKREWAVSFGDKKVFNYTLNGEQYSFCPISPDAVVTTNIAWQYSDVNVVAVHHALLTSGLPVSEVDIVCTLPLTEYYDRNNQPNTENIERKKANFRKKITLNGGDTFTIKDVKVMPESIPAGYEVLQELDELDSLLIIDLGGTTLDISQVMGKLSGISKIYGDSSLGVSLVTSAVKDALSLARTKGSSYLADDIIIHRKDNNYLKQRINDENKISIVTEAMNEALRKLEQRVLNTLNEFSGYTHVMVIGGGAELIADAVKKHTQIRDERFFKTNNSQYDLVNGMYLIGN
modifications: IDCC label
[1]
  Fluorescence change, ratio of the intensity in presence of 1 mM ADP to that in the absence of ADP: 0.93

B6: CPM-ParM (I27C): ParM I27C/C287A labeled with CPM (conjugate, UniProt P11904 1-320, looked up, variant I27C C287A)
Plasmid segregation protein …: MLVFIDDGSTNIKLQWQESDGTIKQHCSPNSFKREWAVSFGDKKVFNYTLNGEQYSFDPISPDAVVTTNIAWQYSDVNVVAVHHALLTSGLPVSEVDIVCTLPLTEYYDRNNQPNTENIERKKANFRKKITLNGGDTFTIKDVKVMPESIPAGYEVLQELDELDSLLIIDLGGTTLDISQVMGKLSGISKIYGDSSLGVSLVTSAVKDALSLARTKGSSYLADDIIIHRKDNNYLKQRINDENKISIVTEAMNEALRKLEQRVLNTLNEFSGYTHVMVIGGGAELIADAVKKHTQIRDERFFKTNNSQYDLVNGMYLIGN
modifications: CPM label
[1]
  Fluorescence change, ratio of the intensity in presence of 1 mM ADP to that in the absence of ADP: 0.62

B7: CPM-ParM (S204C): ParM S204C/C287A labeled with CPM (conjugate, UniProt P11904 1-320, looked up, variant S204C C287A)
Plasmid segregation protein …: MLVFIDDGSTNIKLQWQESDGTIKQHISPNSFKREWAVSFGDKKVFNYTLNGEQYSFDPISPDAVVTTNIAWQYSDVNVVAVHHALLTSGLPVSEVDIVCTLPLTEYYDRNNQPNTENIERKKANFRKKITLNGGDTFTIKDVKVMPESIPAGYEVLQELDELDSLLIIDLGGTTLDISQVMGKLSGISKIYGDSSLGVSLVTCAVKDALSLARTKGSSYLADDIIIHRKDNNYLKQRINDENKISIVTEAMNEALRKLEQRVLNTLNEFSGYTHVMVIGGGAELIADAVKKHTQIRDERFFKTNNSQYDLVNGMYLIGN
modifications: CPM label
[1]
  Fluorescence change, ratio of the intensity in presence of 1 mM ADP to that in the absence of ADP: 0.62

B8: T175F: MDCC-ParM (His6/I27C/T175F/C287A) (conjugate, UniProt P11904 1-320, looked up, variant I27C T175F C287A)
Plasmid segregation protein …: MLVFIDDGSTNIKLQWQESDGTIKQHCSPNSFKREWAVSFGDKKVFNYTLNGEQYSFDPISPDAVVTTNIAWQYSDVNVVAVHHALLTSGLPVSEVDIVCTLPLTEYYDRNNQPNTENIERKKANFRKKITLNGGDTFTIKDVKVMPESIPAGYEVLQELDELDSLLIIDLGGTFLDISQVMGKLSGISKIYGDSSLGVSLVTSAVKDALSLARTKGSSYLADDIIIHRKDNNYLKQRINDENKISIVTEAMNEALRKLEQRVLNTLNEFSGYTHVMVIGGGAELIADAVKKHTQIRDERFFKTNNSQYDLVNGMYLIGN
modifications: MDCC label; His6 tag
[2]
  ADP F+ADP/F−ADP: 2.5
  Kd: 4.7 µM
[3]
  Kd ratio ATP/ADP: 29
  ATP F+ATP/F−ATP: 2.5
  Kd: 137 µM

B9: T175H: MDCC-ParM (His6/I27C/T175H/C287A) (conjugate, UniProt P11904 1-320, looked up, variant I27C T175H C287A)
Plasmid segregation protein …: MLVFIDDGSTNIKLQWQESDGTIKQHCSPNSFKREWAVSFGDKKVFNYTLNGEQYSFDPISPDAVVTTNIAWQYSDVNVVAVHHALLTSGLPVSEVDIVCTLPLTEYYDRNNQPNTENIERKKANFRKKITLNGGDTFTIKDVKVMPESIPAGYEVLQELDELDSLLIIDLGGTHLDISQVMGKLSGISKIYGDSSLGVSLVTSAVKDALSLARTKGSSYLADDIIIHRKDNNYLKQRINDENKISIVTEAMNEALRKLEQRVLNTLNEFSGYTHVMVIGGGAELIADAVKKHTQIRDERFFKTNNSQYDLVNGMYLIGN
modifications: MDCC label; His6 tag
[2]
  ADP F+ADP/F−ADP: 3.2
  Kd: 0.4 µM
[3]
  Kd ratio ATP/ADP: 0.4
  ATP F+ATP/F−ATP: 3.9
  Kd: 0.16 µM

B10: IDCC-ParM (S204C): ParM S204C/C287A labeled with IDCC (conjugate, UniProt P11904 1-320, looked up, variant S204C C287A)
Plasmid segregation protein …: MLVFIDDGSTNIKLQWQESDGTIKQHISPNSFKREWAVSFGDKKVFNYTLNGEQYSFDPISPDAVVTTNIAWQYSDVNVVAVHHALLTSGLPVSEVDIVCTLPLTEYYDRNNQPNTENIERKKANFRKKITLNGGDTFTIKDVKVMPESIPAGYEVLQELDELDSLLIIDLGGTTLDISQVMGKLSGISKIYGDSSLGVSLVTCAVKDALSLARTKGSSYLADDIIIHRKDNNYLKQRINDENKISIVTEAMNEALRKLEQRVLNTLNEFSGYTHVMVIGGGAELIADAVKKHTQIRDERFFKTNNSQYDLVNGMYLIGN
modifications: IDCC label
[1]
  Fluorescence change, ratio of the intensity in presence of 1 mM ADP to that in the absence of ADP: 0.80

B11: IDCC-ParM (T215C): ParM T215C/C287A labeled with IDCC (conjugate, UniProt P11904 1-320, looked up, variant T215C C287A)
Plasmid segregation protein …: MLVFIDDGSTNIKLQWQESDGTIKQHISPNSFKREWAVSFGDKKVFNYTLNGEQYSFDPISPDAVVTTNIAWQYSDVNVVAVHHALLTSGLPVSEVDIVCTLPLTEYYDRNNQPNTENIERKKANFRKKITLNGGDTFTIKDVKVMPESIPAGYEVLQELDELDSLLIIDLGGTTLDISQVMGKLSGISKIYGDSSLGVSLVTSAVKDALSLARCKGSSYLADDIIIHRKDNNYLKQRINDENKISIVTEAMNEALRKLEQRVLNTLNEFSGYTHVMVIGGGAELIADAVKKHTQIRDERFFKTNNSQYDLVNGMYLIGN
modifications: IDCC label
[1]
  Fluorescence change, ratio of the intensity in presence of 1 mM ADP to that in the absence of ADP: 0.74

Reference: patent US8703913B2, “Sensor” (Medical Research Council, priority 2008, dated 2014)
